Reference: US20030152946A1, “Bh4-fused polypeptides” (priority 1999, published 2003)
Blank lines part the entries; values can stand above or below the molecule they belong to.

Legend:
Rat liver VDAC = biological target: T1, Rat liver VDAC (Rattus norvegicus, UniProt Q9Z2L0); assay: VDAC activity: sucrose uptake into VDAC liposomes (liposomal swelling, light scatter at 520 nm); format: biochemical; settings: for Inhibition of VDAC activity (VDAC-mediated sucrose uptake): 20 μg/ml protein or polypeptide
T1 construct: Rat liver VDAC was purified in accordance with a report made by Shimizu et al; from tissue; host or cells: rat liver (mitochondria)
Protocol: Purified VDAC was reconstituted in small unilamellar vesicles by the ultrasonic freeze-thaw procedure described in a report made by Shimizu et al. [Nature, 399, 483-487 (1999)]. Sucrose uptake experiment was performed by assessing liposomal swelling.
Liposomes produced at pH 5.2 were incubated at 25° C. in 1 ml of liposome buffer together with rBcl-xL, rΔ21, rBax or a polypeptide for 3 minutes. Here, acidic pH was a required condition for efficient uptake of rBcl-xL and rBax into the liposomes. Thereafter, sucrose was added up to a concentration of 50 mM to the mixture, and the liposomal swelling was assessed by the decrease in light scatter at a wavelength of 520 nm using a spectrophotometer (F-4500, manufactured by Hitachi, Ltd.). Sucrose uptake was also estimated from ^14C-sucrose uptake as described in the report made by Shimizu et al. [Nature, 399, 483-487(1999)].
Next, the functional role of the BH4 domain in the regulation of VDAC activity was examined. VDAC activity was measured by assessing sucrose uptake into VDAC-containing liposomes, using the two procedures: a method with radiolabeled sucrose described in a report made by Shimizu et al. [Nature, 399, 483-487 (1999)], and a method for measuring a sucrose uptake-dependent liposomal swelling that was monitored by decrease in light scatter. Since sucrose-uptake-dependent liposomal swelling was confirmed by microscopic observation or flow cytometric analysis, it is thought that the liposomal swelling is based on the rapid influx of sucrose and water through large VDAC pores which overwhelmed osmosis-dependent efflux of water.

VDAC = biological target: T2, VDAC (Rattus norvegicus, UniProt Q9Z2L0); assay: Co-immunoprecipitation with VDAC and Western blot; format: binding; settings: 20 μg/ml protein or polypeptide
T2 construct: from tissue; host or cells: rat liver (purified VDAC, or isolated mitochondria)
Protocol: Purified VDAC (20 μg/ml) was incubated with recombinant BCl-xL (rBcl-xL) and recombinant Δ21 (rΔ21), and the resulting mixture was immunoprecipitated with anti-Bcl-xL (L19) antibody and normal rabbit IgG. In order to detect interactions between polypeptide and VDAC, isolated mitochondria (1 mg) were incubated with 20 μg of Bcl-xL N-terminal polypeptide or Bcl-xL C-terminal polypeptide for 5 minutes. Thereafter, the resulting mitochondria were pelleted, washed, and suspended in a lysis buffer (10 mM HEPES, pH 7.4, 142.5 mM KCl, 5 mM MgCl2, 1 mM EGTA and 0.5% NP40) in the presence of proteinase inhibitors (0.1 mM p-APMSF, 10 μg/ml aprotinin, 1 μg/ml chymostatin, 1 μg/ml leupeptin, 1 μg/ml antipain, 1 μg/ml pepstatin), followed by ultrasonic disruption. Immunoprecipitation was carried out with anti-Bcl-x polyclonal antibodies corresponding to the polypeptides used. Co-immunoprecipitation of VDAC was detected by Western blotting using an anti-VDAC antibody.

Rat liver mitochondria [1] = assay: Ca2+-induced ΔΨ loss in isolated mitochondria (Rhodamine 123 uptake); format: biochemical; settings: for Inhibition of Ca2+-induced mitochondrial ΔΨ loss: mitochondria 1 mg/ml, 40 μM Ca2+, 20 μg/ml protein or polypeptide
Protocol: (§1) Rat liver mitochondria (1 mg protein/ml) isolated in accordance with a report made by Shimizu et al. [Oncogene, 13, 21-29(1996)] were incubated at 25° C. in a medium containing 0.3 M mannitol, 10 mM HEPES/K^+ (pH 7.4), 0.1% fatty acid-free BSA, 1 mM potassium phosphate, 40 μM CaCl2 and 4.2 mM succinate for energization in the presence or absence of recombinant proteins.
ΔΨ was assessed by measuring the uptake of Rhodamine 123 (Rh123) as previously described by Shimizu et al. [Oncogene, 13, 21-29(1996)].
Isolated mitochondria (1 mg/ml) were incubated with 20 μg/ml Bcl-xL BH4 polypeptide in the presence of 40 μM Ca^2+, and thereafter Rhodamine 123 intensity was continuously monitored. The results are shown in the left panel of FIG. 14. In addition, isolated mitochondria (1 mg/ml) were incubated with 20 μg/ml BH4 polypeptide of Bcl-xL and any of various mutant polypeptides in the presence of 40 μM Ca for 15 minutes, and thereafter ΔΨ was measured by Rhodamine 123 intensity. The results are shown in the right panel of FIG. 14.

HeLa cells = assay: VP16-induced apoptosis in HeLa cells in the presence of TAT-BH4 polypeptide; format: cell-based, human; settings: VP16 for 24 hours, polypeptide in the culture medium
Protocol: FIG. 17 is a diagram showing the results for evaluating the effect of TAT-BH4 polypeptide on VP16-induced apoptosis. Cells were treated with VP16 at the indicated concentrations for 24 hours in the presence of 100 μg/ml TAT-BH4 polypeptide (□) or TAT polypeptide (∘) or absence of polypeptide (●) and then stained with Hoechst 33342. Apoptotic cell death was determined by the morphology of nuclei using a fluorescence microscope. Data shown are from one of three independent experiments.
FIG. 18 is a diagram showing the results for evaluating the dose-dependent inhibition of VP16-induced apoptosis by TAT-BH4 polypeptide. […] Apoptotic cell death was determined in the same manner as in FIG. 17.
The inhibition and promotion of apoptosis can be evaluated by, for instance, the following method, without being limited thereto.
Therefore, in order to facilitate the transport of the BH4 polypeptide into cells, the above-mentioned TAT-BH4 polypeptide of 30 amino acid residues was synthesized, the polypeptide comprising N-terminal eosin-conjugated cystein and the PTD of HIV TAT protein fused to the Bcl-xL BH4 polypeptide. HeLa cells were treated with 200 μM VP16 in the presence of the TAT-BH4 polypeptide, and then observed by an optical phase-contrast microscope and a fluorescence microscope, respectively. […]

Bax = biological target: T3, Bax (Homo sapiens, UniProt Q07812); assay: Binding of BH4 polypeptide to Bax
T3 construct: made in house

Rat liver mitochondria [2] = assay: Ca2+-induced cytochrome c release from isolated mitochondria (Western blot); format: biochemical; settings: mitochondria 1 mg/ml, 40 μM Ca2+, 20 μg/ml protein
Protocol: as §1
The cytochrome c release was evaluated by centrifuging the above-mentioned mitochondria, re-suspending the resulting pellets in an RIPA buffer to give mitochondria suspension, and subjecting the mitochondria suspension and supernatant to Western blot analysis using anti-cytochrome c antibodies.

[3] = biological target: rat liver VDAC (voltage-dependent anion channel) (rat, UniProt Q9Z2L0 2-283); assay: cell-based or functional assay
rat liver VDAC (voltage-dependent anion channel), sequence (Q9Z2L0 2-283): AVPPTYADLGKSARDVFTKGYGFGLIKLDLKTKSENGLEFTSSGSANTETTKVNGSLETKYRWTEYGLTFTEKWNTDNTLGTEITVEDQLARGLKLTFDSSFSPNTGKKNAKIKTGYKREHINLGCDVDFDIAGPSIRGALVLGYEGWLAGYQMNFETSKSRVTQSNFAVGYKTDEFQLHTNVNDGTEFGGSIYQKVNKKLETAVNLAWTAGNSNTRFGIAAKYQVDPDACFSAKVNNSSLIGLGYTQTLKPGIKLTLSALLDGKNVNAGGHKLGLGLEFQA

T1 sequence (Q9Z2L0 whole entry): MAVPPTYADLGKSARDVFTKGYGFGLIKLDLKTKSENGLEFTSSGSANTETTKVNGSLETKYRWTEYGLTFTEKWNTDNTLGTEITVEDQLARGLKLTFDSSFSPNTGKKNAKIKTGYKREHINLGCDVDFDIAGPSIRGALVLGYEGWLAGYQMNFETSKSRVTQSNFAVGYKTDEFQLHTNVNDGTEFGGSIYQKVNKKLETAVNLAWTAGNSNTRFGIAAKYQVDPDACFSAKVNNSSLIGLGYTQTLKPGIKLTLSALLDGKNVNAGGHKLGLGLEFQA
T2 sequence (Q9Z2L0 whole entry): as above
T3 sequence (Q07812 whole entry): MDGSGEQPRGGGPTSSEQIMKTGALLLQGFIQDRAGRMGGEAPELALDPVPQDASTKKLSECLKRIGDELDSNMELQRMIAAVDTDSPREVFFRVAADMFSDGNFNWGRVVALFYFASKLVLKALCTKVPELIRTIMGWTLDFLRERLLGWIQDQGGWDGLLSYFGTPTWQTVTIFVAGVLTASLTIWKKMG

Molecule: FL1213GG: F12L13 mutant of human Bcl-xL BH4 polypeptide (FIG. 13) (SNRELVVDGGSYKLSQKGYS) [reference compound]
Inhibition of VDAC activity (VDAC-mediated sucrose uptake) (Rat liver VDAC; VDAC liposomes, 50 mM sucrose): did not inhibit

Molecule: L17W: Bcl-xL BH4 polypeptide with one amino acid substitution at L17 (SNRELVVDFLSYKWSQKGYS) [Polypeptide L17W, reference compound]
VDAC inhibitory activity as compared to VDAC inhibition of the normal BH4 polypeptide (fraction in words) (Rat liver VDAC; 20 μg/ml polypeptide, 50 mM sucrose): about one-half

Molecule: LV89GG: L8V9 mutant of human Bcl-xL BH4 polypeptide (FIG. 13) (SNREGGVDFLSYKLSQKGYS) [reference compound]
Inhibition of VDAC activity (VDAC-mediated sucrose uptake) (Rat liver VDAC; VDAC liposomes, 50 mM sucrose): did not inhibit

Molecule: LV89VF: L8V9 mutant of human Bcl-xL BH4 polypeptide (FIG. 13) (SNREVFVDFLSYKLSQKGYS) [reference compound]
Inhibition of VDAC activity (VDAC-mediated sucrose uptake) (Rat liver VDAC; VDAC liposomes, 50 mM sucrose): did not inhibit

Interaction with VDAC (co-immunoprecipitation) (VDAC): detected, although to a lesser extent
Molecule: N-terminal fragment (amino acid nos: 2 to 9) of Bcl-xL: N-terminal (amino acid nos: 2 to 19) polypeptide of Bcl-xL purchased from Santa Cruz Biotechnology (SQSNRELVVDFLSYKLSQ) [reference compound]

Molecule: SNRELVVDFLSYKLSQKGYS (listed as Homo sapiens) [BH4 polypeptide, amino acid nos: 4 to 23 of human Bcl-xL]
Closure of VDAC (Rat liver VDAC; 20 μg/ml BH4 polypeptide): complete closure
Inhibition of rBax-induced enhancement of VDAC activity (Rat liver VDAC; VDAC liposomes, 5 μg/ml rBax, 50 mM sucrose): inhibited the rBax-induced enhancement of VDAC activity in a dose-dependent manner
Inhibition of VDAC activity (VDAC-mediated sucrose uptake) (Rat liver VDAC; VDAC liposomes, 50 mM sucrose): inhibited the VDAC activity in a concentration-dependent manner
Inhibition of VDAC activity (VDAC-mediated sucrose uptake) (Rat liver VDAC; VDAC liposomes, 50 mM sucrose, listed as BH4 polypeptide of BCl-xL): significantly inhibits
Molar concentration needed to inhibit ΔΨ loss and VDAC activity, relative to recombinant Bcl-xL (Rat liver mitochondria [1]; applies to Ca2+-induced ΔΨ loss and VDAC activity): about 25 fold
Inhibition of Ca2+-induced mitochondrial ΔΨ loss (Rat liver mitochondria [1]): significantly inhibits
Inhibition of VP16-induced apoptosis (HeLa cells): no effect
Binding to Bax (Bax): did not bind

Molecule: TGYDNREIVMKYIHYKLSQRGYEW (listed as Homo sapiens) [BH4 polypeptide derived from Bcl-2, amino acid nos: 7 to 30 of human Bcl-2]
Inhibition of VDAC activity (VDAC-mediated sucrose uptake) (Rat liver VDAC; VDAC liposomes, 50 mM sucrose): inhibited VDAC activity

Inhibition of VDAC activity (VDAC-mediated sucrose uptake) (Rat liver VDAC; VDAC liposomes, 50 mM sucrose): inactive
Molecule: VAQDTEEVFRSYVFYRHQQEQEAE [polypeptide derived from Bak, reference compound]

Molecule: eosin-C-RKKRRQRRR [TAT-only polypeptide, reference compound]
Inhibition of VP16-induced apoptosis (HeLa cells): did not significantly inhibit

Inhibition of VDAC activity (VDAC-mediated sucrose uptake) (Rat liver VDAC; VDAC liposomes, 50 mM sucrose): inhibited
Effect on VDAC-free liposomes (Rat liver VDAC; VDAC-free liposomes): did not show any significant effect
Interaction with VDAC (co-immunoprecipitation) (VDAC): interacted with VDAC to a similar level
Molecule: rBcl-xL: recombinant human Bcl-xL expressed as GST fusion in Escherichia coli, GST cleaved with thrombin
Inhibition of Ca2+-induced mitochondrial ΔΨ loss (Rat liver mitochondria [1]): inhibited
Inhibition of Ca2+-induced cytochrome c release (Rat liver mitochondria [2]): inhibited

Inhibition of VDAC activity (VDAC-mediated sucrose uptake) (Rat liver VDAC; VDAC liposomes, 50 mM sucrose): did not affect
Molecule: rΔ21: recombinant human Bcl-xL lacking the N-terminus 21 amino acids residues (BH4 deletion mutant)
Inhibition of Ca2+-induced mitochondrial ΔΨ loss (Rat liver mitochondria [1]): did not virtually show inhibitory activity
Inhibition of Ca2+-induced cytochrome c release (Rat liver mitochondria [2]): did not virtually show inhibitory activity

Molecule: ΔFL: F12L13 mutant of human Bcl-xL BH4 polypeptide (FIG. 13) (SNRELVVDSYKLSQKGYS) [reference compound]
Inhibition of VDAC activity (VDAC-mediated sucrose uptake) (Rat liver VDAC; VDAC liposomes, 50 mM sucrose): did not inhibit

Molecule: ΔLV: L8V9 mutant of human Bcl-xL BH4 polypeptide (FIG. 13) (SNREVDFLSYKLSQKGYS) [reference compound]
Inhibition of VDAC activity (VDAC-mediated sucrose uptake) (Rat liver VDAC; VDAC liposomes, 50 mM sucrose): did not inhibit

molar concentration needed to inhibit Ca2+-induced membrane potential loss and VDAC activity, relative to recombinant Bcl-xL [3]: ~25 fold
Molecule: SNRELVVDFLSYKLSQKGYS [Human Bcl-xL BH4 polypeptide (amino acid nos: 4 to 23 of human Bcl-xL)]
